The experiment concerns the target melanocortin-1 receptor (MC1R) (human) (UniProt Q01726). Kind of experiment: cell-based or functional assay. As to conditions: scale: response value.
Sequence of UniProt Q01726 (Q01726 whole entry): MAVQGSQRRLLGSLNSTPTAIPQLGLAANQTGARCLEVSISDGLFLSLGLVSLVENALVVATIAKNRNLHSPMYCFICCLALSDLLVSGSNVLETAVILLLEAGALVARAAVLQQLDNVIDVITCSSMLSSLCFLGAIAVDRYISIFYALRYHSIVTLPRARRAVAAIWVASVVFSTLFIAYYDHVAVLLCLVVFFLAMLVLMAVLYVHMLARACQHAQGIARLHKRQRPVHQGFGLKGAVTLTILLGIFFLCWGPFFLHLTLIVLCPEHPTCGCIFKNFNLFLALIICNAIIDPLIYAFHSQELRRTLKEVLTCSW

Regarding “4-L-norleucine-7-D-phenylalanine-alpha melanocyte stimulating hormone (from UniProt P01189 138-150) (peptide)”, the maximal response value (z value minus background z value, luminescence, 6xCRE-luciferase reporter lawn) came to 25.

The record behind these values is patent US20030219825A1.
